Laboratory results reported in patent US20220081485A1 (BEIJING WISDOMAB BIOTECHNOLOGY, published 2022).
Where a chain is given by its changes, count along the chain named. Where two headings read alike, the source gives them in different places.

B1: S1E6 phage-scFv (scFv)
scFv: EVQLVESGGGLVQPGGSLRLSCAVSGFTFSSYAMSWVRQAPGKGLEWVSSITGGGGGIYYADSVKGRFTISRDNSKNTVYLQMNSLRAEDTAVYYCAKDRISITIRPRYFGLDFWGQGTTVTVSSGGGGSGGGGSGGGGSDIVMTQSPLSLPVTPGEPASISCRSSRSVLYGNGYNYLDWYLQKSGQSPQLLIYLGTNVAAGVPDRFSGSGSGTDFTLKISRVEAEDVGFYYCMQSLRTPYTFGQGTKLEIK
notes: also called clone S1E6; S1E6 single chain antibody
B2: L28F8-IgG4 (antibody, V domains shown)
VH: EVQLVESGGGLVQPGGSLRLSCAVSGFTFSSYAMSWVRQAPGKGLEWVSSITGGGGGIYYADSVKGRFTISRDNSKNTVYLQMNSLRAEDTAVYYCAKDRISITIRPRYFGLDFWGQGTTVTVSS
VL: DIVMTQSPLSLPVTPGEPASISCRSSQNVVYGNGYNYLDWYLQKSGQSPQLLIYLGTNVAAGVPDRFSGSGSGTDFTLKISRVEAEDVGFYYCMQSLQAPYTFGQGTKLEIKR
notes: also called S1E6 light chain mutant L28F8
B3: L10B2-IgG4 (antibody, V domains shown)
VH: B2 VH
VL: DIVMTQSPLSLPVTPGEPASISCRSSHNLLYSNGYNYLDWYLQKPGQSPQLLIYLGSNRAYGVPDRFSGSGSGTDFTLKISRVEAEDVGVYHCMQALQSPYTFGQGTKVDIKR
notes: also called S1E6 light chain mutant L10B2
B4: L10C2-IgG4 (antibody, V domains shown)
VH: B2 VH
VL: DIVMTQSPLSLPVTAGAPASISCRSSQSLLYSNGYNYLDWYMQKPGQSPQLLIYLGSNRASGVPDRFSGSGSGTDFTLKISRVEAEDVGVYYCMQALETPYAFGQGTKVEIKR
notes: also called S1E6 light chain mutant L10C2
B5: L28G5-IgG4 (antibody, V domains shown)
VH: B2 VH
VL: B2 VL with Q27R, V30I, T57N
notes: also called S1E6 light chain mutant L28G5
B6: S1E6-IgG4 (antibody, V domains shown)
VH: B2 VH
VL: B2 VL with Q27R, N28S, V30L, Q98R, A99T
notes: also called monoclonal antibody S1E6
B7: S1H9 phage-scFv (scFv)
scFv: EVQLVESGGGLVQPGGSLRLSCAASGFTFSNYSMRWVRQAPGKGLEWVSFISASGSTKYYADSVKGRFTISRDNSKNTLYLQMNSLRAEDTAVYYCARKPTAPRSSALDYWGQGTLVTVSSGGGGSGGGGSGGGGSDIQMTQSPSSLSASVGDRVTITCRASQGVNNYLNWYQQKPGKAPKLLIYGASSRASGVPSRFSGSGSGTDFTLTISSLQPEDFATYYCQQRLSVPLTFGQGTKVEIK
notes: also called clone S1H9
B8: S2C2 phage-scFv (scFv)
scFv: QVQLQQSGPGLVKPSQTLSLTCAISGDSVSSNNDAWNWIRQSPSRGLEWLGRTYYRSKWYNDYAVSLKGRITINPDTSKNQFSLHLNSVTPEDTAVYYCAKRDSSVGVGAMDVWSQGTTVTVSSGGGGSGGGGSGGGGSVIWMTQSPSSLSASVGDRVTITCRSSQYIGKYLNWYQYKKGQVPKLLIYAASSLRSGVPSRFSGRGSATEFTLTISNLQREDFATYYCQKYNAVPLTFGQGTKLEIK
notes: also called clone S2C2

Columns and labels:
[1] = molecular target: T1, recombinant hIL4R-his (human IL-4R extracellular domain with C-terminal His tag) (human (Homo sapiens), UniProt P24394 26-232); experiment: solid phase phage display screening with hIL4R-his as antigen
T1 construct: The tag was added at the C-terminus; The protein was expressed in HEK293 cells; also called huIL4R
T1 sequence: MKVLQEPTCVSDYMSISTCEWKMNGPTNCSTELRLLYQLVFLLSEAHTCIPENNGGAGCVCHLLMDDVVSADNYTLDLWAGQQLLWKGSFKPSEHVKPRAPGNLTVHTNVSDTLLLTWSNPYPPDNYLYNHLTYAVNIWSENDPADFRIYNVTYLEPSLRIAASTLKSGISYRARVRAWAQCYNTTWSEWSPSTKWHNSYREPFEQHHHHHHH

[2] = molecular target: T2, coated recombinant IL4R antigen (Example 3.2) (human (Homo sapiens), UniProt P24394 26-232); experiment: competition ELISA: phage-scFv at a fixed titer on coated recombinant IL4R, against a gradient of recombinant IL4; detected with HRP-anti-M13
T2 sequence: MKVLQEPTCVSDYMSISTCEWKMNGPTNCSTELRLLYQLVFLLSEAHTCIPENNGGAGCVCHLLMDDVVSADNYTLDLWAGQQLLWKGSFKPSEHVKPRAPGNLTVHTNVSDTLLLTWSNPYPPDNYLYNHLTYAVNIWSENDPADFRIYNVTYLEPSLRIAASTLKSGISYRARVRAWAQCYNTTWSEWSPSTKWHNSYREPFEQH

[3] = molecular target: T3, human IL-4R on cells (HEK-Blue IL-4/IL-13 cells, TF-1 cells, human PBMCs) (human, UniProt P24394 26-825); experiment: cell-based or functional assay
T3 sequence (looked up): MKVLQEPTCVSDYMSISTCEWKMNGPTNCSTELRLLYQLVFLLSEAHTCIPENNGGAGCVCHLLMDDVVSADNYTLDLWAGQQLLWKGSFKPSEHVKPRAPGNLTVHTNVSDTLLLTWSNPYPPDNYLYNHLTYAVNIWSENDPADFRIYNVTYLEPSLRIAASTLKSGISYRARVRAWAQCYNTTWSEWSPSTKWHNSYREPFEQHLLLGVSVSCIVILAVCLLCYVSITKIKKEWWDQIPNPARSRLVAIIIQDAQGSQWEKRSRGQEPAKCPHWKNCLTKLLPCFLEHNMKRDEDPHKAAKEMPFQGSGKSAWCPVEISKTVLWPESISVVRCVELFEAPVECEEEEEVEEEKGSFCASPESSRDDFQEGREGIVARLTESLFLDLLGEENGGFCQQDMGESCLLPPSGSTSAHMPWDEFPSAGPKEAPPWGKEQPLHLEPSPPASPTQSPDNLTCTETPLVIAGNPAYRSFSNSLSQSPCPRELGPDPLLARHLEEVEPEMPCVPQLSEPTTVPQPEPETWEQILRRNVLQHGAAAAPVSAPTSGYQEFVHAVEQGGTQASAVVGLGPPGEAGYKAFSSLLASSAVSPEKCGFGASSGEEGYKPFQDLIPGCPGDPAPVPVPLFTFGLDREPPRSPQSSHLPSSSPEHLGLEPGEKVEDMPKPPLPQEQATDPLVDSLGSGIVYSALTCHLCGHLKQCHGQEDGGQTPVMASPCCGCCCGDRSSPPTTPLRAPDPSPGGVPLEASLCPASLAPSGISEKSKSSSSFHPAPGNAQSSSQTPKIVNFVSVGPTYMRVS

[4] = molecular target: T3, human IL-4R on cells (HEK-Blue …); experiment: cell-based or functional assay; remark: listed apart in the source
[5] = molecular target: T4, IL4R-mFc (human IL-4R extracellular domain fused to murine IgG2a Fc) (human (Homo sapiens)); experiment: blocking ELISA: antibody gradient with IL4-his at a fixed concentration on coated IL4R-mFc; bound IL4-his detected with HRP-mouse-anti-his IgG
T4 construct: also called antigen IL4R-mFc
Description: (§1) 96 well plates were coated with antigen IL4R-mFc (3 μg/ml, 100 μI/well) overnight at 4° C.

[6] = molecular target: T1, recombinant hIL4R-his (human IL-4R …); experiment: SPR Biacore X100, antibody captured by anti-human Fc, IL4R-his as analyte, 25 C
Description: (§2) The affinity of each anti-IL4R IgG4 chimeric antibody was determined using Biacore X100. Amino coupling kits, human antibody capture kits, CM5 chips, 1× HBS-EP (pH 7.4) and all reagents used in this assay were purchased from GE Healthcare. According to the instructions in the kits, an antibody against the human Fc region was coupled to the surface of the CM5 chip using an amino coupling method, and antibody proteins were diluted to appropriate concentrations to ensure that about 100 RU of the antibodies was captured by the antibody against the human Fc. IL4R-his was set to a series of concentration gradients (100 nm, 33.3 nm, 11.1 nm, 3.7 nm, 1.23 nm) and flew through the surface of the stationary phase.

[7] = molecular target: T5, mmIL4R-mFc (Macaca mulatta IL-4R extracellular domain fused to murine IgG2a Fc) (Macaca mulatta); experiment: SPR Biacore X100, antibody captured, mmIL4R-mFc as analyte
T5 chain: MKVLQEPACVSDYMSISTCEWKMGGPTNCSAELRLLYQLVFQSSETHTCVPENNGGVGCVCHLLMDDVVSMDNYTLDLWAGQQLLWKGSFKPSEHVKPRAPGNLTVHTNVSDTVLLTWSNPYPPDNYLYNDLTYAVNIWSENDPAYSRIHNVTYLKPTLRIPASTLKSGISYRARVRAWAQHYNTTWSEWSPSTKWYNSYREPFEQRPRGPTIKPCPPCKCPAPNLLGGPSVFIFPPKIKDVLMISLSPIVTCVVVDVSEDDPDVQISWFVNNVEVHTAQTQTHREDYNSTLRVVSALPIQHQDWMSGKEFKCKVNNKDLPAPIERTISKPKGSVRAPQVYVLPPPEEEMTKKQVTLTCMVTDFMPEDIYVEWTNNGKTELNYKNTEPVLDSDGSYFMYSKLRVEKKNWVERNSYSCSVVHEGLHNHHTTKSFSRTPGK
Description: as §2
Similarly, anti-IL4R monoclonal antibodies were captured and mmIL4R-mFc was set to a series of concentration gradient (50 nm, 16.7 nm, 5.56 nm, […], 0.62 nm).

[8] = molecular target: T3, human IL-4R on cells (HEK-Blue …); experiment: cell-based or functional assay; remark: listed apart in the source
[9] = molecular target: T3, human IL-4R on cells (HEK-Blue …); experiment: cell-based or functional assay; remark: listed apart in the source
[10] = molecular target: T1, recombinant hIL4R-his (human IL-4R …); experiment: SPR Biacore X100, antibody captured by anti-human Fc, IL4R-his as analyte, 25 C; remark: listed apart in the source
Description: as §2

[11] = molecular target: T4, IL4R-mFc (human IL-4R extracellular …); experiment: blocking ELISA: antibody gradient with IL4-his at a fixed concentration on coated IL4R-mFc; bound IL4-his detected with HRP-mouse-anti-his IgG; remark: listed apart in the source
Description: as §1

[12] = molecular target: T3, human IL-4R on cells (HEK-Blue …); experiment: cell-based or functional assay; remark: listed apart in the source
[13] = molecular target: T3, human IL-4R on cells (HEK-Blue …); experiment: cell-based or functional assay; remark: listed apart in the source

Binder | binding result [1] | binding result [2] | IC50 (read off the curve) [5] [pM] | Kd [6] [pM] | koff [6] [s⁻¹] | kon [6] [M⁻¹ s⁻¹] | Kd [7] [pM] | koff [7] [s⁻¹] | kon [7] [M⁻¹ s⁻¹] | Kd [10] [pM] | koff [10] [s⁻¹] | kon [10] [M⁻¹ s⁻¹] | IC50 (read off the curve) [11] [pM] | other results
B1 | binds | binds | – | – | – | – | – | – | – | – | – | – | – | –
B2 | – | – | ~10000 | 420 | 0.000144 | 342000 | 6930 | 0.00519 | 748000 | – | – | – | – | IC50 values in inhibition of IL-4 (SEAP, HEK-Blue IL-4/IL-13 cells) [3]: 55 pM; IC50 values in inhibition of IL-4 (IL-4 induced proliferation of TF-1 cells, CellTiter-Glo) [4]: 124 pM; IC50 values in inhibition of IL-13 (SEAP, HEK-Blue IL-4/IL-13 cells) [8]: 12.1 pM
B3 | – | – | – | – | – | – | – | – | – | 443 | 0.000152 | 343000 | ~7000 | IC50 values in inhibition of IL-4 (SEAP, HEK-Blue IL-4/IL-13 cells) [9]: 207 pM; IC50 values in inhibition of IL-13 (SEAP, HEK-Blue IL-4/IL-13 cells) [12]: 13.1 pM
B4 | – | – | – | – | – | – | – | – | – | 874 | 0.000309 | 353000 | ~8000 | IC50 values in inhibition of IL-4 (SEAP, HEK-Blue IL-4/IL-13 cells) [9]: 333 pM; fold of IC50 in inhibition of IL-4 against L10B2 (HEK-Blue IL-4/IL-13 cells) [13]: 1.6 fold; fold of IC50 in inhibition of IL-13 against L10B2 (HEK-Blue IL-4/IL-13 cells) [13]: 2.4 fold; IC50 values in inhibition of IL-13 (SEAP, HEK-Blue IL-4/IL-13 cells) [12]: 31.4 pM
B5 | – | – | ~8000 | 464 | 0.000134 | 289000 | 10400 | 0.00709 | 684000 | – | – | – | – | IC50 values in inhibition of IL-4 (SEAP, HEK-Blue IL-4/IL-13 cells) [3]: 48.4 pM; IC50 values in inhibition of IL-4 (IL-4 induced proliferation of TF-1 cells, CellTiter-Glo) [4]: 118 pM; IC50 values in inhibition of IL-13 (SEAP, HEK-Blue IL-4/IL-13 cells) [8]: 11.5 pM
B6 | – | – | ~20000 | 2840 | 0.000709 | 249000 | 9300 | 0.0049 | 527000 | 2950 | 0.000923 | 312000 | ~20000 | –
B7 | binds | binds | – | – | – | – | – | – | – | – | – | – | – | –
B8 | binds | binds | – | – | – | – | – | – | – | – | – | – | – | –
